In publication PMC11062245:

Molecular target: T1, melanopsin (mOPN4-Flag), on Per2:ELuc:TK:Mel cells (mouse) (UniProt Q9QXZ9)
T1 sequence: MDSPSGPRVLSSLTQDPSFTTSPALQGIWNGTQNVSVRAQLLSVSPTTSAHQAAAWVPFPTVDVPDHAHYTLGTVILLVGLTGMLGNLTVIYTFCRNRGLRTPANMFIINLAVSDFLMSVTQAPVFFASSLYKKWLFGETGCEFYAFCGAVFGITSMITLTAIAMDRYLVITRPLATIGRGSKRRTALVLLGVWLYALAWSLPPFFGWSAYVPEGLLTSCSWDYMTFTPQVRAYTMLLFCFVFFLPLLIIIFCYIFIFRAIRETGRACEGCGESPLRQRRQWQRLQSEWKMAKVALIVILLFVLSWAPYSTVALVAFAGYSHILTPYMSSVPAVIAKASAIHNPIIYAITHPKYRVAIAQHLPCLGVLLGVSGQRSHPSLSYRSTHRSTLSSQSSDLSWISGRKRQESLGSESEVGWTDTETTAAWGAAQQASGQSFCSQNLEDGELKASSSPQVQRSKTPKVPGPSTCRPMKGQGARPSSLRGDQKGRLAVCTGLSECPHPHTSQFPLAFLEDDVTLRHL
Assay: cell binding fluorescence (microplate), EC50
Details: 6-FAM-Melapt (1.405-90 ug/mL) added to adherent cells in DMEM, 15 min, washed, fluorescence 495/517 nm, n=3, cells cultured at 37 C, 5% CO2, binding pH and …

Sequence	K half	K half (Results text gives 22.5 ug/mL, not saturated at 90 ug/mL)
AAAGGGGAATTCGGATCCCGACCCGAAGGAGCGGTGGATAACCCCACCAAGATACGTCCTGCAGAAGCTTCCGTTT [6-FAM-Melapt01]	11.2 µg/mL	–
AAAGGGGAATTCGGATCCTTCACCGATACGGCTCCCTTGGCCAGACAGGAAAAAATAACTGCAGAAGCTTCCGTTT [6-FAM-Melapt08]	–	45 µg/mL
AAAGGGGAATTCGGATCCCCGCACACGTGGAGCCAAGTCGAGTTTAATTCCCTATCGCCTGCAGAAGCTTCCGTTT [6-FAM-Melapt04]	5.62 µg/mL	–
